Reference: article PMC9482650, “Quantitative fragmentomics allow affinity mapping of interactomes” (Nature Communications, 2022)

Target: T1, CARD11, Q9BXL7
T1 sequence (Q9BXL7 662-765, limits assumed, looked up): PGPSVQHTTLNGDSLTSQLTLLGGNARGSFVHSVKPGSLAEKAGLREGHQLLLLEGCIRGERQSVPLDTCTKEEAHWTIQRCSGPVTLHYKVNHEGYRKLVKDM
Assay: holdup assay
Design: key: below the threshold = too weak to quantify, mostly under pKd 3.1 to 4
Settings: plain residues with an end cap or a label only (N-terminal biotin on a linker: ado-ado)

Row | pKd | Binder
1 | below the threshold | AQRARSPSDV [GPR12, P47775]

Target: T2, DFNB31_3, Q9P202
T2 sequence (Q9P202 811-907, limits assumed, looked up): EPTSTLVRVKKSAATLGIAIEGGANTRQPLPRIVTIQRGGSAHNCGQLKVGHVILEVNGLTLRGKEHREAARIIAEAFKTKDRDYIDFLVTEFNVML
Assay: holdup assay
Design: key: below the threshold = too weak to quantify, mostly under pKd 3.1 to 4
Settings: plain residues with an end cap or a label only (N-terminal biotin on a linker: ado-ado)

Row | pKd | Binder
2 | 3.59 | AQRARSPSDV [GPR12, P47775]

Target: DLG1_3, Q12959
Assay: holdup assay
Design: key: below the threshold = too weak to quantify, mostly under pKd 3.1 to 4
Settings: plain residues with an end cap or a label only (N-terminal biotin on a linker: ado-ado)

Chain of DLG1_3, Q12959 (Q12959 457-571): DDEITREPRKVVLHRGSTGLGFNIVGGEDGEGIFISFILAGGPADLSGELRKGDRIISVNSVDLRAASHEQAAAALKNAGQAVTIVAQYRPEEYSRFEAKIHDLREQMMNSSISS

Row | pKd | Binder
3 | below the threshold | AQRARSPSDV [GPR12, P47775]

Target: DLG2_3, Q15700
Assay: holdup assay
Design: key: below the threshold = too weak to quantify, mostly under pKd 3.1 to 4
Settings: plain residues with an end cap or a label only (N-terminal biotin on a linker: ado-ado)

Row | pKd | Binder
4 | 3.67 | AQRARSPSDV [GPR12, P47775]

Target: FRMPD2_3, Q68DX3
Assay: holdup assay
Design: key: below the threshold = too weak to quantify, mostly under pKd 3.1 to 4
Settings: plain residues with an end cap or a label only (N-terminal biotin on a linker: ado-ado)

Chain of FRMPD2_3, Q68DX3 (Q68DX3 1073-1166): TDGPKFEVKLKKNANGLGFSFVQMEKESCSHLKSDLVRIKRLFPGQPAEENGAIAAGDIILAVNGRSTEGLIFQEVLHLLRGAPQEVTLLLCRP

Row | pKd | Binder
5 | below the threshold | AQRARSPSDV [GPR12, P47775]

Target: GOPC, Q9HD26
Assay: holdup assay
Design: key: below the threshold = too weak to quantify, mostly under pKd 3.1 to 4
Settings: plain residues with an end cap or a label only (N-terminal biotin on a linker: ado-ado)

Row | pKd | Binder
6 | below the threshold | AQRARSPSDV [GPR12, P47775]

Target: GORASP1, Q9BQQ3
Assay: holdup assay
Design: key: below the threshold = too weak to quantify, mostly under pKd 3.1 to 4
Settings: plain residues with an end cap or a label only (N-terminal biotin on a linker: ado-ado)

Chain of GORASP1, Q9BQQ3 (Q9BQQ3 1-208): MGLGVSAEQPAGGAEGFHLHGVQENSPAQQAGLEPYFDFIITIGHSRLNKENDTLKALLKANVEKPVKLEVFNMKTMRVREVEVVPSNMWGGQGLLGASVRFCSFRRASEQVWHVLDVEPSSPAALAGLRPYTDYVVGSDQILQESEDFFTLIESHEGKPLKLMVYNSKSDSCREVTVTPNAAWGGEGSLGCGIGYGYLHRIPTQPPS

Row | pKd | Binder
7 | below the threshold | AQRARSPSDV [GPR12, P47775]

Target: GRASP, Q7Z6J2
Assay: holdup assay
Design: key: below the threshold = too weak to quantify, mostly under pKd 3.1 to 4
Settings: plain residues with an end cap or a label only (N-terminal biotin on a linker: ado-ado)

Chain of GRASP, Q7Z6J2 (Q7Z6J2 96-193): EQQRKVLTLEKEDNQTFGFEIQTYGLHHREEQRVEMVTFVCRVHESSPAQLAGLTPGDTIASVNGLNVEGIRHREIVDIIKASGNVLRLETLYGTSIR

Row | pKd | Binder
8 | below the threshold | AQRARSPSDV [GPR12, P47775]

Target: T3, GRIP1_4, Q9Y3R0
T3 sequence (Q9Y3R0 467-571, limits assumed, looked up): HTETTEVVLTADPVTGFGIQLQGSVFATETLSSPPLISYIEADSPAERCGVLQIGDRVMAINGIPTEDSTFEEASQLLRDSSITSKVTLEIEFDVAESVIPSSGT
Assay: holdup assay
Design: key: below the threshold = too weak to quantify, mostly under pKd 3.1 to 4
Settings: plain residues with an end cap or a label only (N-terminal biotin on a linker: ado-ado)

Row | pKd | Binder
9 | below the threshold | AQRARSPSDV [GPR12, P47775]

Target: T4, GRIP1_7, Q9Y3R0
T4 sequence (Q9Y3R0 999-1096, limits assumed, looked up): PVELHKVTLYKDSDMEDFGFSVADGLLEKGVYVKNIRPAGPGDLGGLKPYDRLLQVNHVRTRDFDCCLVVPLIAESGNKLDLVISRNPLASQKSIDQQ
Assay: holdup assay
Design: key: below the threshold = too weak to quantify, mostly under pKd 3.1 to 4
Settings: plain residues with an end cap or a label only (N-terminal biotin on a linker: ado-ado)

Row | pKd | Binder
10 | below the threshold | AQRARSPSDV [GPR12, P47775]

Target: GRIP2_4, Q9C0E4
Assay: holdup assay
Design: key: below the threshold = too weak to quantify, mostly under pKd 3.1 to 4
Settings: plain residues with an end cap or a label only (N-terminal biotin on a linker: ado-ado)

Chain of GRIP2_4, Q9C0E4 (Q9C0E4 446-548): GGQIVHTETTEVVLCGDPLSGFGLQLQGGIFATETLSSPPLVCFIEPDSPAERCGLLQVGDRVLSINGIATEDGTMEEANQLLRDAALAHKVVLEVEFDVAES

Row | pKd | Binder
11 | below the threshold | AQRARSPSDV [GPR12, P47775]

Target: GRIP2_6, Q9C0E4
Assay: holdup assay
Design: key: below the threshold = too weak to quantify, mostly under pKd 3.1 to 4
Settings: plain residues with an end cap or a label only (N-terminal biotin on a linker: ado-ado)

Chain of GRIP2_6, Q9C0E4 (Q9C0E4 648-740): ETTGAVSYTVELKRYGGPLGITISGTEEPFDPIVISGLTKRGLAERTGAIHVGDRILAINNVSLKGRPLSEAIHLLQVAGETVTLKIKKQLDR

Row | pKd | Binder
12 | below the threshold | AQRARSPSDV [GPR12, P47775]

Target: T5, HTRA3, P83110
T5 sequence (P83110 354-453, limits assumed, looked up): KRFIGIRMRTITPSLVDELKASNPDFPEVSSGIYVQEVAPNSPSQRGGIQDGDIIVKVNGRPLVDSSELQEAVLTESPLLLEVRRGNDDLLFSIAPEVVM
Assay: holdup assay
Design: key: below the threshold = too weak to quantify, mostly under pKd 3.1 to 4
Settings: plain residues with an end cap or a label only (N-terminal biotin on a linker: ado-ado)

Row | pKd | Binder
13 | below the threshold | AQRARSPSDV [GPR12, P47775]

Target: IL16_3, Q14005
Assay: holdup assay
Design: key: below the threshold = too weak to quantify, mostly under pKd 3.1 to 4
Settings: plain residues with an end cap or a label only (N-terminal biotin on a linker: ado-ado)

Chain of IL16_3, Q14005 (Q14005 1107-1207): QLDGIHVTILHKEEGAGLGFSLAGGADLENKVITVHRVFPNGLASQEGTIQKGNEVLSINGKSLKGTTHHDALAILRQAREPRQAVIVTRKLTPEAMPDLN

Row | pKd | Binder
14 | below the threshold | AQRARSPSDV [GPR12, P47775]

Target: Inadl_10, Q8NI35
Assay: holdup assay
Design: key: below the threshold = too weak to quantify, mostly under pKd 3.1 to 4
Settings: plain residues with an end cap or a label only (N-terminal biotin on a linker: ado-ado)

Chain of Inadl_10, Q8NI35 (Q8NI35 1673-1763): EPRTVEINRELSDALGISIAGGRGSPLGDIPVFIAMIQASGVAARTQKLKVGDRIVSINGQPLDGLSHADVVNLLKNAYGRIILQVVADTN

Row | pKd | Binder
15 | below the threshold | AQRARSPSDV [GPR12, P47775]

Target: Inadl_2, Q8NI35
Assay: holdup assay
Design: key: below the threshold = too weak to quantify, mostly under pKd 3.1 to 4
Settings: plain residues with an end cap or a label only (N-terminal biotin on a linker: ado-ado)

Chain of Inadl_2, Q8NI35 (Q8NI35 238-335): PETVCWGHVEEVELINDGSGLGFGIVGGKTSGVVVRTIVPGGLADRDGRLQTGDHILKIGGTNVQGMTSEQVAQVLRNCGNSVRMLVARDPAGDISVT

Row | pKd | Binder
16 | below the threshold | AQRARSPSDV [GPR12, P47775]

Target: Inadl_6, Q8NI35
Assay: holdup assay
Design: key: below the threshold = too weak to quantify, mostly under pKd 3.1 to 4
Settings: plain residues with an end cap or a label only (N-terminal biotin on a linker: ado-ado)

Chain of Inadl_6, Q8NI35 (Q8NI35 1058-1167): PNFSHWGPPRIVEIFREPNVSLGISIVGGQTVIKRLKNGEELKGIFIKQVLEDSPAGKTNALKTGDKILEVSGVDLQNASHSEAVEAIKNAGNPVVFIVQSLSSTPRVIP

Row | pKd | Binder
17 | below the threshold | AQRARSPSDV [GPR12, P47775]

Target: T6, LRRC7, Q96NW7
T6 sequence (Q96NW7 1440-1537, limits assumed, looked up): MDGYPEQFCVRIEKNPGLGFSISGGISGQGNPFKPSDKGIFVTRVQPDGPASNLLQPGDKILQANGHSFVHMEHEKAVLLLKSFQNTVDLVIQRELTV
Assay: holdup assay
Design: key: below the threshold = too weak to quantify, mostly under pKd 3.1 to 4
Settings: plain residues with an end cap or a label only (N-terminal biotin on a linker: ado-ado)

Row | pKd | Binder
18 | below the threshold | AQRARSPSDV [GPR12, P47775]

Target: MAGI3_2, Q5TCQ9
Assay: holdup assay
Design: key: below the threshold = too weak to quantify, mostly under pKd 3.1 to 4
Settings: plain residues with an end cap or a label only (N-terminal biotin on a linker: ado-ado)

Chain of MAGI3_2, Q5TCQ9 (Q5TCQ9 398-503): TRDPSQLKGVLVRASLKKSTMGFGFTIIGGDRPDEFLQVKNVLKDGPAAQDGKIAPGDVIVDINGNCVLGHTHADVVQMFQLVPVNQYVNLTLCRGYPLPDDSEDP

Row | pKd | Binder
19 | 3.5 | AQRARSPSDV [GPR12, P47775]

Target: T7, NHERF3_3, Q5T2W1
T7 sequence (Q5T2W1 238-333, limits assumed, looked up): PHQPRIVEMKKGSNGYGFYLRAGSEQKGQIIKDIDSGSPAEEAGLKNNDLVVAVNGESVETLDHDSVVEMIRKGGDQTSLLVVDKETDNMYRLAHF
Assay: holdup assay
Design: key: below the threshold = too weak to quantify, mostly under pKd 3.1 to 4
Settings: plain residues with an end cap or a label only (N-terminal biotin on a linker: ado-ado)

Row | pKd | Binder
20 | below the threshold | AQRARSPSDV [GPR12, P47775]

Target: T8, RHPN1, Q8TCX5
T8 sequence (Q8TCX5 508-602, limits assumed, looked up): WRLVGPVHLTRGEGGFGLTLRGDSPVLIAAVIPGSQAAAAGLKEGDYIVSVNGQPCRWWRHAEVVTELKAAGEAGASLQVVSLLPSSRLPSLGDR
Assay: holdup assay
Design: key: below the threshold = too weak to quantify, mostly under pKd 3.1 to 4
Settings: plain residues with an end cap or a label only (N-terminal biotin on a linker: ado-ado)

Row | pKd | Binder
21 | below the threshold | AQRARSPSDV [GPR12, P47775]

Target: SCRIB_1, Q14160
Assay: holdup assay
Design: key: below the threshold = too weak to quantify, mostly under pKd 3.1 to 4
Settings: plain residues with an end cap or a label only (N-terminal biotin on a linker: ado-ado)

Chain of SCRIB_1, Q14160 (Q14160 718-814): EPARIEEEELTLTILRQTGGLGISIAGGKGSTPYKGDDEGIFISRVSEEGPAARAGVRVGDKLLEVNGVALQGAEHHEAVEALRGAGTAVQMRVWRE

Row | pKd | Binder
22 | below the threshold | AQRARSPSDV [GPR12, P47775]

Target: T9, SNTA1, Q13424
T9 sequence (Q13424 82-180, limits assumed, looked up): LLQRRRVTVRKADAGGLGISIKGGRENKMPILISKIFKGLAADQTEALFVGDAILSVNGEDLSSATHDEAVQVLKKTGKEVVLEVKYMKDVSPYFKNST
Assay: holdup assay
Design: key: below the threshold = too weak to quantify, mostly under pKd 3.1 to 4
Settings: plain residues with an end cap or a label only (N-terminal biotin on a linker: ado-ado)

Row | pKd | Binder
23 | below the threshold | AQRARSPSDV [GPR12, P47775]

Target: T10, SNTB1, Q13884
T10 sequence (Q13884 107-205, limits assumed, looked up): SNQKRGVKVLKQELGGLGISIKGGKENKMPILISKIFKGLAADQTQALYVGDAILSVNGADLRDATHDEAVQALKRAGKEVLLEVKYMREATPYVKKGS
Assay: holdup assay
Design: key: below the threshold = too weak to quantify, mostly under pKd 3.1 to 4
Settings: plain residues with an end cap or a label only (N-terminal biotin on a linker: ado-ado)

Row | pKd | Binder
24 | below the threshold | AQRARSPSDV [GPR12, P47775]

Target: SNX27, Q96L92
Assay: holdup assay
Design: key: below the threshold = too weak to quantify, mostly under pKd 3.1 to 4
Settings: plain residues with an end cap or a label only (N-terminal biotin on a linker: ado-ado)

Row | pKd | Binder
25 | below the threshold | AQRARSPSDV [GPR12, P47775]

Target: T11, TIAM2, Q8IVF5
T11 sequence (Q8IVF5 885-986, limits assumed, looked up): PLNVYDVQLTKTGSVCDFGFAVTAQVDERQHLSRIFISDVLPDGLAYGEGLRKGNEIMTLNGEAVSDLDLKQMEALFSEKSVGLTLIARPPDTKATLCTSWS
Assay: holdup assay
Design: key: below the threshold = too weak to quantify, mostly under pKd 3.1 to 4
Settings: plain residues with an end cap or a label only (N-terminal biotin on a linker: ado-ado)

Row | pKd | Binder
26 | 4.05 | AQRARSPSDV [GPR12, P47775]
